Reference: patent US20090175786A1

Columns and labels:
[1] = biological target: neuromedin-B preferring receptor (NMB-R), human (human) (UniProt P28336); assay: displacement of 125I-universal ligand, human tumour sections
[2] = biological target: gastrin releasing peptide receptor (GRP-R), human (human) (UniProt P30550); assay: as above
Sequence of gastrin releasing peptide receptor (GRP-R), human (human) (P30550 whole entry): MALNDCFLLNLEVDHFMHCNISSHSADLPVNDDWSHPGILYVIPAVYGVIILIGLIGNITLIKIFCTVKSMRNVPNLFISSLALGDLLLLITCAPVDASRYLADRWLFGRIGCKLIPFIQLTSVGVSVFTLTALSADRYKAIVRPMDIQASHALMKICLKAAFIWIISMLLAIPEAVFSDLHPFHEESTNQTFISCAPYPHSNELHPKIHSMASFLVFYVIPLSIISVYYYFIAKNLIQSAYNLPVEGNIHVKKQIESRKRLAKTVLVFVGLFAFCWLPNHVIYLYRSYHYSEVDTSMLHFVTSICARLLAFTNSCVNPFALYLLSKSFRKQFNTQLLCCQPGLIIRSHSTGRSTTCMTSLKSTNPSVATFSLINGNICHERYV

Sequence of neuromedin-B preferring receptor (NMB-R), human (human) (P28336 whole entry): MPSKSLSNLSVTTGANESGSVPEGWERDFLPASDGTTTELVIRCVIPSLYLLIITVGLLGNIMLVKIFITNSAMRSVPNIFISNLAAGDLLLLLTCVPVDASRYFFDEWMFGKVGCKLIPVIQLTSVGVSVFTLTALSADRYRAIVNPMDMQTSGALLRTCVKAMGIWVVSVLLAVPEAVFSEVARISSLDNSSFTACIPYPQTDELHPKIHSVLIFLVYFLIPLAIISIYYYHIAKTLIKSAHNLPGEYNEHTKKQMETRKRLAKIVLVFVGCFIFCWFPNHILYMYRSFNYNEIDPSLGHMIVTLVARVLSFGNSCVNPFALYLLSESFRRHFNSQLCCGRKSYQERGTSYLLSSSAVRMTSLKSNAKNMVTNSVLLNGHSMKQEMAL

Substance: [DTyr^6, βAla^11, Phe^13, Nle^14]-BBN(6-14) (peptide)
- IC50 [1]: 0.8 nM
- IC50 [2]: 0.7 nM
